These results are taken from patent publication US20040161419A1, “Placental stem cells and uses thereof” (priority 2002, published 2004).

In data set [1] the test system is placental stem cells.
Description: The cells were cultured for either 7-10 days or until the cultures grew to confluence. The cells were trypsinized and reseeded in 6 well plates. The cells were subjected to different culture conditions, having varying growth factors supplementing the DMEM or MEM based medium. […] Placental stem cells were cultured for an additional 14 days. At the end of 14 days, the cells were evaluated for the expression of human albumin, CYP3A4, A1AT, or C/EBP-alpha.
Data set [2] concerns placental stem cells. The experiment in a line: Culture in the presence or absence of EGF (growth curve). The format is cell-based, human. Particulars: EGF 10 ng/ml versus absence of EGF. The procedure: A human placenta was obtained from an uncomplicated elective caesarean section. The whole placenta was placed in a sterilized 1000 ml cup and washed with Hank's Balanced Salt Solution (HBSS) containing penicillin G (100 U/ml), streptomycin (100 μg/ml), and amphotericin B (0.25 μg/ml). The umbilical cord was cut and the whole placenta was cut in half at the point of attachment of the umbilical cord. The amnion layer was peeled from the underlying chorion layer of the placenta by gentle stripping with a sterile scalpel, starting from the cut edge (middle of the placental body) and working outward. The amnion was washed with HBSS (without antibiotics) and rinsed with 0.05% Trypsin-EDTA. 0.05% Trypsin-EDTA was added to approximately twice the volume of the tissue in a 50 cc Falcon tube and incubated at 37° C. for 20 min on shaker in a 5% CO2 incubator. The tissue is transferred to a new tube with 0.05% Trypsin-EDTA. Media was added to remaining supernatant in the tube to stop trypsinization and centrifuged at 800 rpm for 10 min at 4° C. The pellet was resuspended in DMEM, 10% FBS, 1 mM Sodium Pyruvate, EGF (10 ng/ml), penicillin G (100 U/ml), streptomycin (100 μg/ml), and amphotericin B (0.25 μg/ml). The trysinization step was repeated up to a total of 3 times. The cells released by each trypsinization were plated separately or mixed in one tube after passing through a 100 μm cell strainer. […]

B1: EGF: epidermal growth factor, media supplement (protein, UniProt P01133 23-1207, looked up)
Pro-epidermal growth factor: PQHWSCPEGTLAGNGNSTCVGPAPFLIFSHGNSIFRIDTEGTNYEQLVVDAGVSVIMDFHYNEKRIYWVDLERQLLQRVFLNGSRQERVCNIEKNVSGMAINWINEEVIWSNQQEGIITVTDMKGNNSHILLSALKYPANVAVDPVERFIFWSSEVAGSLYRADLDGVGVKALLETSEKITAVSLDVLDKRLFWIQYNREGSNSLICSCDYDGGSVHISKHPTQHNLFAMSLFGDRIFYSTWKMKTIWIANKHTGKDMVRINLHSSFVPLGELKVVHPLAQPKAEDDTWEPEQKLCKLRKGNCSSTVCGQDLQSHLCMCAEGYALSRDRKYCEDVNECAFWNHGCTLGCKNTPGSYYCTCPVGFVLLPDGKRCHQLVSCPRNVSECSHDCVLTSEGPLCFCPEGSVLERDGKTCSGCSSPDNGGCSQLCVPLSPVSWECDCFPGYDLQLDEKSCAASGPQPFLLFANSQDIRHMHFDGTDYGTLLSQQMGMVYALDHDPVENKIYFAHTALKWIERANMDGSQRERLIEEGVDVPEGLAVDWIGRRFYWTDRGKSLIGRSDLNGKRSKIITKENISQPRGIAVHPMAKRLFWTDTGINPRIESSSLQGLGRLVIASSDLIWPSGITIDFLTDKLYWCDAKQSVIEMANLDGSKRRRLTQNDVGHPFAVAVFEDYVWFSDWAMPSVMRVNKRTGKDRVRLQGSMLKPSSLVVVHPLAKPGADPCLYQNGGCEHICKKRLGTAWCSCREGFMKASDGKTCLALDGHQLLAGGEVDLKNQVTPLDILSKTRVSEDNITESQHMLVAEIMVSDQDDCAPVGCSMYARCISEGEDATCQCLKGFAGDGKLCSDIDECEMGVPVCPPASSKCINTEGGYVCRCSEGYQGDGIHCLDIDECQLGEHSCGENASCTNTEGGYTCMCAGRLSEPGLICPDSTPPPHLREDDHHYSVRNSDSECPLSHDGYCLHDGVCMYIEALDKYACNCVVGYIGERCQYRDLKWWELRHAGHGQQQKVIVVAVCVVVLVMLLLLSLWGAHYYRTQKLLSKNPKNPYEESSRDVRSRRPADTEDGMSSCPQPWFVVIKEHQDLKNGGQPVAGEDGQAADGSMQPTSWRQEPQLCGMGTEQGCWIPVSSDKGSCPQVMERSFHMPSYGTQTLEGGVEKPHSLLSANPLWQQRALDPPHQMELTQ
modifications: Pro-epidermal growth factor
notes: epidermal growth factor, media supplement
As for B1, the “liver specific gene expression (albumin, CYP3A4, A1AT, C/EBP-alpha)” value (from here on “liver specific gene expression”) with placental stem cells [1] was “enhance liver specific gene expression”. The entries for the “proliferation of placental stem cells” value in the data set on placental stem cells [2] and with placental stem cells [2] (listed as Epidermal Growth Factor (EGF)) were “proliferate robustly” and “grow significantly better”, respectively.

B2: FGF 4: fibroblast growth factor 4, media supplement (protein, UniProt P08620 31-206, looked up)
Fibroblast growth factor 4: APTAPNGTLEAELERRWESLVALSLARLPVAAQPKEAAVQSGAGDYLLGIKRLRRLYCNVGIGFHLQALPDGRIGGAHADTRDSLLELSPVERGVVSIFGVASRFFVAMSSKGKLYGSPFFTDECTFKEILLPNNYNAYESYKYPGMFIALSKNGKTKKGNRVSPTMKVTHFLPRL
Regarding B2, the “liver specific gene expression” value in the data set on placental stem cells [1] was “did not enhance liver specific gene expression”.

B3: FGF 7: fibroblast growth factor 7, media supplement (protein, UniProt P21781 32-194, looked up)
Fibroblast growth factor 7: CNDMTPEQMATNVNCSSPERHTRSYDYMEGGDIRVRRLFCRTQWYLRIDKRGKVKGTQEMKNNYNIMEIRTVAVGIVAIKGVESEFYLAMNKEGKLYAKKECNEDCNFKELILENHYNTYASAKWTHNGGEMFVALNQKGIPVRGKKTKKEQKTAHFLPMAIT
On to B3, for which the “liver specific gene expression” value in the data set on placental stem cells [1] was “did not enhance liver specific gene expression”.
